From the DeepSol protein solubility set

Test: soluble on expression in E. coli; label from the status in PepcDB or PDB records

Row | Sequence | soluble on expression in E. coli
1 | MGSDKIHHHHHHAALYARWAPTHSAAPAAEQQRKVLFWYDPMYPNTRFDKPGKSPFMDMDLVPKYADEEHAAAGAPGVRIDPTQTQNLGVKTAAVTRGPLRYAQTFPANISYNEYQYVIMQARAAGFINKVYPLTVGDKVKQGTPLLELTIPDWVEAQSEYLLLQETGGTATQVEGILERLRLAGMPDDDIRRLKATRKIQTRFTLTAPIDGVITAFDLRAGMNIAKDNVVAKIQGMDPVWVSVAVPESIAWLIKDASQFSIQVPAWPGKTFRISKWTLLPSVDSATRTLQLRLQVNNPDEALKPGMNAYLQLTSESAPMLLIPSKALIDSGSEQRVITVDNEGRFVPKRVQVFHESAGVTAIRSGLQEGEKVVARGLFLIDSEANIAGALERMRAQAPDAAASAAHAH | not soluble
2 | MGSDKIHHHHHHADGNDPVENSVSTYLLEKTYGARSVTYEENNSDKLKLSELPAISLSEADHILSVLRKHTDAQEELDIQTATKGEQTWLRIVMKQTIDHKYAFTIQLNMNCYNDGSLYYGGYQAECSSSLIKWYLKGFSLATDNATKNYKFESQSYIYMKVIDNGIKYMQIPVTINGNYNPQNHDAAFSYNL | not soluble
3 | MGSDKIHHHHHHAEVAVPDTTPKDTASAVKITYEDPRDPFEGFNRVMWDFNYLYLDRYLYRPVAHGYNDYIPLPAKMGVNNFLQNLEEPSSVVNNLLQGKWGWAANAGGRFTVNTTIGLLGVIDVADMMGMTRKQDEFNEVLGYYGVPNGPYFMAPFAGPYIVRELASDWVDGLYFPLSELTMWQSVLKWGLKSLHARASAIDQERLVDNALDPYAFVKDAYIQHMDYKVYDGNVPQKQEDDELLDQYMQELE | not soluble
4 | MGSDKIHHHHHHAEVPVSDTIQQEAPAKVQITYDDPRDPFEGFNRAMWDFNYLYLDRYLYRPVAHGYNDYIPMPAKTGINNFVQNLEEPSSLVNNVLQGKWGWAANAGGRFTINSTVGLLGVIDVADMMGMSRKQDEFNEVLGYYGVPNGPYFMAPFAGPYVVRELASDWVDGLYFPLSELTMWQTIVKWGLKNLHSRASAIDQERLVDNALDPYAFVKDAYLQHMDYKVYDGNVPQKQDDDELLDQYMQELE | not soluble
5 | MGSDKIHHHHHHAGCEEEASLSARSVVEAGETEREKTELDKWILDTFTRPYGIEVEYRWDKNAVQNGSYIYPPEVANVKSVLNTIKTLWIDLYTAPELGGDKFLLGKNPLKIYMYGGRNVDGNGMELLDNLEATTNEMFLYNVNDFNPQDEDKVFILMRSVHHQFARHLMELFPYDRSKFLSISRNKYIESTKSIAWIFKGETQGRRGFILAGYPNKKGFFTFHSLLSPEKDFAEIISLKLTYGPKDLLQALDRAKTPYNAGSDKDLQKEYDEQALQAYKELVEKQAFVEDYFSKEIKISLNYLQLISMKQVKEFINKK | not soluble
6 | MGSDKIHHHHHHAGCKTSKVVKTTPVEPAYLSSKLQLTVPNKNGSMTVSGSMKMKSGERIQLSVLMPVFRSEVMRMEVTPDEVLLIDRMNKRYVRATRDELKGILPENADFDRLEKLLFKASLPGEKKELTGRELGIPSLEKAKVRLSDFSTAEFELIPTEVSSRYTQVALEDLLKMLMKL | not soluble
7 | MGSDKIHHHHHHAKSEMAFAGKGEISPRAITMWDFSWLERRWPGAGYEDWDQVLDELSERGYNAIRIDAYPHLIAENPMKKWLLKEVWNQQDWGSPDMNEVQVQPNLNLFLSKCKERDIKVGLSSWYRLDVDEVCLKLDTPEKLADCWLTILRSIEEDGLLDTILYVDLCNEWPGDSWAPFFAKTYPNVGWGNWYKEESLRWMKTSLEKMRQVYPDMPFLYSFDHGDVKKYEEVDCSFLDLYEHHIWMAQQNGGEFYKLVGYGYNRFLPDDYKNVVKNAERVYRERPGYWQKLLTDKIELMASVARKNRRPLVTTECWGLVDYKDWPLLKWDWVKDLCELGTITAARTGMWVGVATSNFCGPQFAGMWRDVEWHKRLTSIIRSSPLDESLTKNNEVAAKLLKRL | not soluble
8 | MGSDKIHHHHHHAQFKKFNLGKAIQAGKDAAQAISLSDADIAAMSKEYMEWMDKHNPLTKPDSEYGKRLERLTGNIKEVDGMKVNFGVYEVVDVNAFACGDGSVRICAGLMDVMTDEEVMAVIGHEIGHVIHTDSKDAMKNAYFRSAVKNAAGAASSQVAKLTDSELGAMAEALAGAQYSQKQEYEADAYGVEFCVKNNIDPYGMYKSLNKLLELSNGAPASSYMQRMFSSHPDTAKRVARAKELADKYKQ | not soluble
9 | MGSDKIHHHHHHARDTLFVNLTDATDSQSLKLSDFGNTVRYVPLETNEVCLIGNNPHIALLEDKIVIATKDQCFLFHKQTGKYICSIGHIGDDPSGYSSTNYWIDDAGLFYFFRAPDQLLKYNQKGEMTGKIQIPHIPAAPDFFAFSDSTIIAHCNSSIGLESSNSLLFLNSFGEKLDSIPNLLKSPSIPSPDNISSLSIIKRGAGFFGNLGRRGVMIIKDKEQGELLLPLYNPSLWSSENEVRFRETFTDTIYTIKNRKLYPYMVFHTDTDHSSANPLWYSNPQSIYVAYVLENTHSVFFQYVKNKQVYNGLYNKETQQTKFAKCQQFIVDDLTSEQELKVDLSALCSYKGEYGFILEAASIPDASQKQSDNKNENIPHWMSQLDEDANPVIAIVSDK | not soluble
10 | MGSDKIHHHHHHARRNILRQTWMSKANSEIVANGRMKPLFLVGLTPGEYKMKKMVMQEAKLYGDIIVVDMNDNYEELTYKSLAILLYGVSKAPRYQMIGKIDEDVMFFPDKLTELYDQGFIDATPLRIYGLKMQSGANIFRDKTHRWYVPESSYSCSKFPEYVSGMLYMVTWEAAQQIIKSTKYRDFIQVEDVFLTGILAEDLGISVKNLP | not soluble
11 | MGSDKIHHHHHHASCDKFDEINTDPDATTKVTSSLLATGLLLDITSSSASKSFIYDELLAKQMAWGESMEDYQYNVFGRSGFGGYTTLINAQKMVESVSDDNVNAYDGLAHFIKAYKIFYMSMEMGDLPYEEALQGELGLVRPKYNTQKEVMNFILSDLETAYELFSTAKDFDGDPILGGSISKWKKATTAFQLKVLMHLSKKESDADLKVKERFARIVASGSLMESNEDNLQMKYADKANTVYPFHNTNTKHAGYAMLSTMLIDKFKATGDIRMFYYAKPAKAKLNEGVTADSWDAYIGTDPSLPFEQIEKAYATEQYSGFNARYTDYPSGEPVVRLGYAEQNFILAEAAVRGWISGDASAYYKKAIRAHMEFIASNTPDEEVYHHGHPITEEAIAAFLETPAIQLSGEKEEDIEKILTQRYLASFMQHPYDVYYDYRRTGYPVLPINPATNRNTMNDRLPMRWMYPKSESDYNLEHQNEALERQFGGVDDVNKLMWILQ | not soluble
12 | MGSDKIHHHHHHASGFTLGKDILSYVAVGDSFTEGLDDPYPDSARFPQGRYRGWADRFAEHLARHVREVRYANLAVRGKLLRQILTEQLPRAVELRPDLVTLCAGGNDILRPGSDPDTLADAFEGAVRQLRDTGADVVIFTGFDTGFQPVMRHLRGKIATYNMHLRGIADRYHCRVVDLWSMKIFQDRRAWSDDRLHLSAEGHRRLALRVCEVMGVPVDEDWNAPWPQEPPAPWHQARQEDLRWARQHLVPWIHRRLTGRSSGDGVRPKRPNLEPLVRR | not soluble
13 | MGSDKIHHHHHHASKIKQVGSTNLEPTTAYIRNYKATGSNAIYNKPGKLSGSKVVASASTAKAQSVLHGYKVAKLSNKSYYMKVVSFDGRYRGYIYVGKKNPVNNFKKVGGGLTYLSTTTSTSLTNNDKKDLSFAKPGTDTQIYKAPKGSQYKVGAAVKDTTDYKGHKLVASKAAMNDMDGQKWLYVSDVTEPTNASGWVLASQLTDYVAPKAPVSVGNDQTTVTKNWQREFYNPATGTKAYSFDNLNLPLLGTSGGSNVNWTTAVKKFNSDATVKGDKKDVVPADTLATAFKNSGLSTVYMKVTPTLLARIPGGLLDKIDSYSGLYMKFDLDMDNIPTTTHYGDQLKLAYKLDNTNLYYKPVISLGGLTNTNADGYAALPVQLNAMNTLWGLLYQ | not soluble
14 | MGSDKIHHHHHHAVTSCLDTEEIEYSPDATIHAFALDTIHGVNYKFTIDQLGPDGVGLIYNQDSLPVGSDTIIDRILIKTLTTTSGIITAKNAEGQDTLFNYSDSIDFRGTMQKPMRIKVWAADMQYTKEYTISVRVHQQDPDSMNWTKMTDNFANYSGYQKSVTLNEDLLIYTSNTTAYQSSGDVISKGRSWTPVSITGLPDNIKLSSIISFGGKLYATNGESAYVSSDGALWNVATDLNKNGKVEMLIAPFPKNEGNLLGISGIAGIINNGDQSTFAITNPEATAWNIGSETVGADFPLENLSATSYLTATGIQTIAVMGNNRNANDTTSIAWTSQDGLLWIPLKTSSSTAYCPKLDNPSFFYYDNAFLAFGGNFETIYTSEAGIAWYKANKKIFLPAEFKDRGNNYSTVVDKNNFIWVIWSNGGANEVWRGRINKFGFKRQNNN | not soluble
15 | MGSDKIHHHHHHAVVPGKKDFINENTPGSKVVQTPEGAWFKDDKNRQEWSITSEDGLRLKAIYLPADKKSNRTVIMAHGYMGSAETMSVFAKMYHDWGYNVLAPDARGHGKSQGDYIGFGWPDRKDYVQWIEKVLTENGQQEQITLYGVSMGAATVMMTSGEKLPDNVKAIVEDCGYSTVNQELQYQLKELFNLPSFPLVNVTSGITKLRAGYFFGEASAVKQLQKNHLPMLFIHGENDTFVPFSMLDEVYNATQGPKEKYVVPGAEHAKAYNKNPEKYKETVAAFLDKYIK | not soluble
16 | MGSDKIHHHHHHDDTLTSGTITIAVDETFRPIIEEELQVFYALTPDATVHPIYCSEVEAMKLLLADSVRLAITTRQLTRQETAYLNDKKFFPVSVKMATDGLALIVNKQNTDSLITVDQFKEILTGKVTDWKQLNPASRLGELQLVFDNPNSSTVHYVLDSICGGMPLSKDLKAQKTNPEVISYVAKNPAALGVIGVNWIGNPADSTRLSFNDVIRIMAVSRADSATVGNSFKPYQAYLALNQYPLTRNVYILLNDPKSGLPSGLTSFLTDFRGQRIILKSGLVPATAAVRIVDVKEE | not soluble
17 | MGSDKIHHHHHHDEFIQGIGNQNAQESGVWDFSMSISDMKFSQEDGAQTNPMIGMLITQIKDASLSGKIQVDAKKEKAFNLEMKLKAMGMDVPISLVGSLDNEGKEPKLYLATDMMEYIVAVADSMTDGAIDSSQLDTEKLKGKYIDLLAMNEESTKEWQDTIKEYQESEKERKQSAKEYKEFLEGLDKDTFEKKGDTITHTFTKKELQKLIKITTETSEKGKEQDPFEKVKDVSAKVSVNTKENKTNMLINVKPQQDKNVDMGLESLSSKISITQKAKKATISMPKKENILSEQEVEKIFSDSTSMTGLSTEDTTVAINQ | not soluble
18 | MGSDKIHHHHHHDKLDLSPIDYYGSGSYWKTEAQATAYIDGIHKHLRDAAWQHTITFGELRGGRFITGASSDGMGVSNGDIILQNFDETHTGVSKFGDLFGRITNLNLFIARVTDATYLSDEMKNFYLGEVYGLRAFYYFDLYRIYGGVPLRLTADVVEGVIDPNKLYMARSTPKEVMTQIKSDLNKSMEYFGNMNDFDPYKRGKKVYWSKAATECLMGEVYLWTSKVTTGDDVANPADLTIAKTHLESVLNNYNLKMLDDFSQVFNAKNKANDEIIFAIRFLEGEATNSNGTFTYNVGTGSTKNRYQANGEVFGDALDIQNTGNQTYEYNKAVYQNFDDADTRKEATFIASYNKDGKTGELSLYGTHVRKNIGYVNAQGARVYCGDYIFYRLPWVYLTLAEIANMEGDNAAVAKYINLVRKRAYGNAWDETLYAYPETADFTTNELAILHEKDKEFIQEGQRWWDLRRMTLTKGGTPLVFCKEGSLLGDAPILNKSTEAHKLLWPIEKTMLNKDPALEQTPGYK | not soluble
